Source: PMC7949104

Target: E5 C77S mutant
Test: SEC; analytical gel filtration, Superdex 75 10/300 GL, 0.5 ml/min, 50 mM phosphate buffer with 150 mM NaCl, in the presence of a reducing agent; mass from protein standards

## E5 C77S mutant (enzyme)
  stoichiometry N: 6
